Experimental data as given in the supplement of paper PMC9233669.
Fewer inactive variants are shown than the library holds.

What was measured:
biotinyl-Phe-oxazolone = assay: self-aminoacylation, catalytic enhancement (BFO) (fold over background); higher = more active; k-Seq, kA / k0A0; sequences stand for … in GGGAAUGGAUCCACAUCUACGAAUUC…UUCACUGCAGACUUGACGAAGCUG
In short: (§1)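 Mutagenized RNA pools with a 21-nt variable region (0.43 μM) reacted with each biotinyl-aminoacyl-oxazolone at 2–1250 μM. Reactions ran in 50 μL HEPES/NaCl/KCl/MgCl2/CaCl2 buffer with 5% acetonitrile, pH 6.9–7.0, for 90 minutes at room temperature. Streptavidin-captured RNA was quantified by triplicate qPCR and Illumina sequencing, and per-sequence fraction reacted was fit to a pseudo-first-order model with 1000 bootstraps. Catalytic enhancement is median kA divided by the uncatalyzed rate, the low-activity peak of a bimodal Gaussian fit.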

biotinyl-Ile-oxazolone = assay: self-aminoacylation, catalytic enhancement (BIO) (fold over background); higher = more active; k-Seq, kA / k0A0; sequences stand for … in GGGAAUGGAUCCACAUCUACGAAUUC…UUCACUGCAGACUUGACGAAGCUG
In short: as §1

biotinyl-Met-oxazolone = assay: self-aminoacylation, catalytic enhancement (BMO) (fold over background); higher = more active; k-Seq, kA / k0A0; sequences stand for … in GGGAAUGGAUCCACAUCUACGAAUUC…UUCACUGCAGACUUGACGAAGCUG
In short: as §1

biotinyl-Val-oxazolone = assay: self-aminoacylation, catalytic enhancement (BVO) (fold over background); higher = more active; k-Seq, kA / k0A0; sequences stand for … in GGGAAUGGAUCCACAUCUACGAAUUC…UUCACUGCAGACUUGACGAAGCUG
In short: as §1

biotinyl-Leu-oxazolone = assay: self-aminoacylation, catalytic enhancement (BLO) (fold over background); higher = more active; k-Seq, kA / k0A0; sequences stand for … in GGGAAUGGAUCCACAUCUACGAAUUC…UUCACUGCAGACUUGACGAAGCUG
In short: as §1

biotinyl-Trp-oxazolone = assay: self-aminoacylation, catalytic enhancement (BWO) (fold over background); higher = more active; k-Seq, kA / k0A0; sequences stand for … in GGGAAUGGAUCCACAUCUACGAAUUC…UUCACUGCAGACUUGACGAAGCUG
In short: as §1

| Sequence | self-aminoacylation (biotinyl-Phe-oxazolone) | self-aminoacylation (biotinyl-Ile-oxazolone) | self-aminoacylation (biotinyl-Met-oxazolone) | self-aminoacylation (biotinyl-Val-oxazolone) | self-aminoacylation (biotinyl-Leu-oxazolone) | self-aminoacylation (biotinyl-Trp-oxazolone) |
| --- | --- | --- | --- | --- | --- | --- |
| AUGUUUGCUAAUAGUCGCCAG [Fam3.1 aminoacylation ribozyme variant] | 1.53 | 1.26 | 1.37 | 1.29 | 1.51 | 1.76 |
| AUGUUUGCUAAUGGUCGCAAG [Fam3.1 aminoacylation ribozyme variant] | 1.63 | 1.16 | 0.875 | 0.934 | 1.02 | 1.13 |
| AUGUUUGCUGAUAGUCGCAAG [Fam3.1 aminoacylation ribozyme variant] | 3.84 | 1.81 | 1.1 | 1.37 | 1.33 | 1.38 |
| AUGUUUUCUAAUAGUCGCAAG [Fam3.1 aminoacylation ribozyme variant] | 2.58 | 1.62 | 1.62 | 1.2 | 1.52 | 2.2 |
| AUUAACAUAGGUCAUCGGGUG [Fam2.2 aminoacylation ribozyme variant] | 38 | 3.92 | 6.29 | 3.51 | 7 | 6.55 |
| AUUAACAUGGUCAUCGAGUGA [Fam2.1 aminoacylation ribozyme variant] | 26.1 | 3.41 | 5.53 | 3.23 | 6.1 | 8.43 |
| AUUAACCAAGGUCAUCGGGUG [Fam2.2 aminoacylation ribozyme variant] | 43.2 | 3.81 | 7.25 | 4.19 | 9.4 | 6.8 |
| AUUAACCUAGGUAAUCGGGUG [Fam2.2 aminoacylation ribozyme variant] | 12.5 | 1.78 | 2.62 | 1.66 | 2.3 | 2.42 |
| AUUAACCUAGGUCACCGGGUG [Fam2.2 aminoacylation ribozyme variant] | 23.6 | 3.19 | 4.09 | 3.13 | 4.52 | 5.15 |
| AUUAACCUAGGUCAGCGGGUG [Fam2.2 aminoacylation ribozyme variant] | 19 | 2.5 | 2.59 | 2.12 | 4.4 | 2.72 |
| AUUAACCUAGGUCAUAGGGUG [Fam2.2 aminoacylation ribozyme variant] | 1.19 | 1.29 | 1.41 | 1.36 | 1.74 | 2.08 |
| AUUAACCUAGGUCAUCAGGUG [Fam2.2 aminoacylation ribozyme variant] | 1.4 | 1.24 | 1.35 | 1.48 | 1.47 | 1.43 |
| AUUAACCUAGGUCAUCGGGUU [Fam2.2 aminoacylation ribozyme variant] | 40.5 | 5.18 | 9.3 | 4.78 | 12.7 | 6.05 |
| AUUAACCUAGGUCAUCGGUUG [Fam2.2 aminoacylation ribozyme variant] | 3.47 | 1.02 | 1.07 | 1.09 | 1.19 | 1.05 |
| AUUAACCUAGGUCAUGGGGUG [Fam2.2 aminoacylation ribozyme variant] | 22.6 | 2.28 | 3.3 | 2.38 | 4.82 | 3.44 |
| AUUAACCUAGGUCAUUGGGUG [Fam2.2 aminoacylation ribozyme variant] | 15.2 | 1.93 | 2.88 | 2.28 | 3.23 | 2.85 |
| AUUAACCUAUGUCAUCGGGUG [Fam2.2 aminoacylation ribozyme variant] | 36 | 3.43 | 5.3 | 3.13 | 6.82 | 5.05 |
| AUUAACCUCGGUCAUCGGGUG [Fam2.2 aminoacylation ribozyme variant] | 28.5 | 3.13 | 5.08 | 3.76 | 5.54 | 3.74 |
| AUUAACCUGGUCAACGAGUGA [Fam2.1 aminoacylation ribozyme variant] | 22.5 | 2.78 | 5.37 | 2.85 | 5.45 | 6.7 |
| AUUAACCUGGUCAUCCAGUGA [Fam2.1 aminoacylation ribozyme variant] | 18.6 | 2.38 | 4.16 | 2.56 | 4.45 | 5.64 |
| AUUAACCUGGUCAUCGAGUGA [Fam2.1 aminoacylation ribozyme variant] | 8.46 | 3.97 | 7.3 | 4.02 | 7.64 | 8.57 |
| AUUAACCUGGUCAUCGAGUGC [Fam2.1 aminoacylation ribozyme variant] | 0.898 | 0.994 | 1.25 | 1.1 | 1.18 | 0.854 |
| AUUAACCUGGUCAUCUAGUGA [Fam2.1 aminoacylation ribozyme variant] | 52.4 | 4.57 | 9.41 | 4.53 | 9.7 | 11.1 |
| AUUAACCUGGUCAUGGAGUGA [Fam2.1 aminoacylation ribozyme variant] | 9.66 | 2.45 | 4.08 | 2.02 | 3.54 | 4.5 |
| AUUAACCUUGUCAUCGAGUGA [Fam2.1 aminoacylation ribozyme variant] | 17.6 | 3.25 | 6.16 | 3.39 | 6.72 | 7.59 |
| AUUAACUUAGGUCAUCGGGUG [Fam2.2 aminoacylation ribozyme variant] | 28.7 | 2.79 | 4.59 | 2.59 | 4.73 | 4.85 |

| Sequence | self-aminoacylation (biotinyl-Phe-oxazolone) | self-aminoacylation (biotinyl-Ile-oxazolone) | self-aminoacylation (biotinyl-Met-oxazolone) | self-aminoacylation (biotinyl-Val-oxazolone) | self-aminoacylation (biotinyl-Leu-oxazolone) | self-aminoacylation (biotinyl-Trp-oxazolone) |
| --- | --- | --- | --- | --- | --- | --- |
| AUUAAGCUAGGUCAUCGGGUG [Fam2.2 aminoacylation ribozyme variant] | 34.3 | 3.11 | 3.88 | 3.77 | 5.1 | 4.85 |
| AUUACACUGGUCAUCGAGUGA [Fam2.1 aminoacylation ribozyme variant] | 19.7 | 3.17 | 5.44 | 3.09 | 5.86 | 6.94 |
| AUUACACUGGUCAUCGCGUGA [Fam2.1 aminoacylation ribozyme variant] | 102 | 6.84 | 12.6 | 7.07 | 14.4 | 14.6 |
| AUUACACUGGUCAUCGUGUGA [Fam2.1 aminoacylation ribozyme variant] | 13.8 | 1.75 | 3.15 | 1.56 | 2.8 | 3 |
| AUUACACUGGUCCUCGAGUGA [Fam2.1 aminoacylation ribozyme variant] | 23.4 | 2.72 | 5.17 | 2.32 | 4.8 | 5.79 |
| AUUACACUUGUCAUCGAGUGA [Fam2.1 aminoacylation ribozyme variant] | 11.4 | 2.51 | 4.21 | 2.59 | 4.35 | 5.31 |
| AUUACCAAGGUCAUCGAGUGA [Fam2.1 aminoacylation ribozyme variant] | 43.2 | 3.64 | 7.64 | 3.96 | 8.44 | 9.76 |
| AUUACCACGGUCAUCGAGUGA [Fam2.1 aminoacylation ribozyme variant] | 38.3 | 3.48 | 6.51 | 3.66 | 5.96 | 8.11 |
| AUUACCAUCGUCAUCGAGUGA [Fam2.1 aminoacylation ribozyme variant] | 5.68 | 2.21 | 3.19 | 2.32 | 3.6 | 3.53 |
| AUUACCAUGGUCAUCGAGUGA [Fam2.1 aminoacylation ribozyme variant] | 12 | 4.49 | 8.61 | 4.75 | 9.28 | 10.7 |
| AUUACCAUGGUCUUCGAGUGA [Fam2.1 aminoacylation ribozyme variant] | 28 | 3.56 | 5.47 | 3.35 | 6.61 | 7.3 |
| AUUACCAUGGUGAUCGAGUGA [Fam2.1 aminoacylation ribozyme variant] | 14.7 | 2.33 | 3.59 | 2.4 | 4.04 | 4.4 |
| AUUACCCAAGUCAUCGAGUGA [Fam2.1 aminoacylation ribozyme variant] | 42.4 | 4.5 | 8.57 | 4.46 | 9.5 | 9.59 |
| AUUACCCAGAUCAUCGAGUGA [Fam2.1 aminoacylation ribozyme variant] | 15.2 | 3.1 | 5.55 | 2.99 | 5 | 7.37 |
| AUUACCCAGGUAAUCGAGUGA [Fam2.1 aminoacylation ribozyme variant] | 44.6 | 3.26 | 7.57 | 3.56 | 8.05 | 9.28 |
| AUUACCCAGGUCAUCGAUUGA [Fam2.1 aminoacylation ribozyme variant] | 0.642 | 0.872 | 0.825 | 0.759 | 0.826 | 0.511 |
| AUUACCCAGGUCAUCUAGUGA [Fam2.1 aminoacylation ribozyme variant] | 59.3 | 4.62 | 10.7 | 5.97 | 9.76 | 12.2 |
| AUUACCCAGGUCUUCGAGUGA [Fam2.1 aminoacylation ribozyme variant] | 39.3 | 3.65 | 5.69 | 3.61 | 6.86 | 8.2 |
| AUUACCCAGGUGAUCGAGUGA [Fam2.1 aminoacylation ribozyme variant] | 29.3 | 2.39 | 4.68 | 2.33 | 4.3 | 6.02 |
| AUUACCCCGAUCAUCGAGUGA [Fam2.1 aminoacylation ribozyme variant] | 27.4 | 3.39 | 7.24 | 3.77 | 7.03 | 7.71 |
| AUUACCCCGGGCAUCGAGUGA [Fam2.1 aminoacylation ribozyme variant] | 39.4 | 3.78 | 5.45 | 4.03 | 8.03 | 8.11 |
| AUUACCCCGGUCAUCGAGUGA [Fam2.1 aminoacylation ribozyme variant] | 27.9 | 2.93 | 5.35 | 3.2 | 5.4 | 6.34 |
| AUUACCCCGGUCAUCGAGUUA [Fam2.1 aminoacylation ribozyme variant] | 1.74 | 1.17 | 1.41 | 0.938 | 1.16 | 1.01 |
| AUUACCCCGGUCAUCUAGUGA [Fam2.1 aminoacylation ribozyme variant] | 47.1 | 4.31 | 7.8 | 3.96 | 8.24 | 8.95 |
| AUUACCCCGGUCAUGGAGUGA [Fam2.1 aminoacylation ribozyme variant] | 22.6 | 2.92 | 4.97 | 3.07 | 5.28 | 6.2 |
